The data set has as its system Saccharomyces cerevisiae. Put plainly: protein stability index of tFT-peptide fusion (C-terminal peptide) (PSI (0-1 scale)); higher = more stable (slower turnover). The settings on record: temperature: 30 C. The protocol: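 MPS profiling in S. cerevisiae of the yeast C-terminome library: the last 12 aa of each annotated ORF are fused to the C-terminus of a sfGFP-mCherry timer, after a GGGS linker. Cells are FACS-sorted into 8 mCherry/sfGFP bins and deep-sequenced. PSI runs from 0 (unstable) to 1 (stable); wild type and das1Δ backgrounds, two technical replicates each.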

The mark [1] stands for this setting: genetic background: das1 deletion.

± gives the standard deviation of the averaged measurements.

Turning to SVTSKFKKYPYK [BET2 C-terminal 12 aa], the protein stability index under setting [1] came out at 0.7131 ± 0.0021 and the protein stability index (genetic background: wild type) stood at 0.634 ± 0.026.

Take SWISKEKRVSEE [HXT2 C-terminal 12 aa]: the protein stability index is 0.731 ± 0.032 under setting [1] and 0.809 ± 0.04 (genetic background: wild type).

SWLYNFDELLWQ [ALG8 C-terminal 12 aa]: the protein stability index by setting is: under setting [1], 0.761 ± 0.011; (genetic background: wild type) 0.727 ± 0.021.

On to SYNDPALADFMP [NRE1 C-terminal 12 aa], for which the protein stability index by setting is: under setting [1], 0.7154 ± 0.007; (genetic background: wild type) 0.744 ± 0.039.

TAEPNRNVNQMP [YDL218W C-terminal 12 aa]: the protein stability index reads like this: under setting [1], 0.678 ± 0.017; (genetic background: wild type) 0.662 ± 0.013.

Consider TASEIQRTKSSI [YGR035C C-terminal 12 aa], for which the protein stability index runs as follows: under setting [1], 0.711 ± 0.03; (genetic background: wild type) 0.683 ± 0.022.

For the sequence TDEFDMLIGIDH [COG6 C-terminal 12 aa], the protein stability index reads like this: under setting [1], 0.697 ± 0.024; (genetic background: wild type) 0.707 ± 0.025.

With TDLENETFIYPL [YCT1 C-terminal 12 aa], the protein stability index under setting [1] is 0.722 ± 0.022 and the protein stability index (genetic background: wild type) was found to be 0.793 ± 0.072.

Consider TDNTVYQKFLKY [ILV1 C-terminal 12 aa], for which the protein stability index stood at 0.674 ± 0.014 under setting [1] and 0.692 ± 0.041 (genetic background: wild type).

TDVKKFIHELCE [TRP3 C-terminal 12 aa]: the protein stability index was 0.69 ± 0.014 under setting [1] and 0.679 ± 0.034 (genetic background: wild type).

Take TEKKINTRPPFR [DAM1 C-terminal 12 aa]: the protein stability index runs as follows: under setting [1], 0.7012 ± 0.0011; (genetic background: wild type) 0.656 ± 0.011.

Consider TEMATDASARMV [TPO4 C-terminal 12 aa], for which the protein stability index runs as follows: under setting [1], 0.687 ± 0.0097; (genetic background: wild type) 0.682 ± 0.0089.

As for TEPVKQVLGNKE [NMA1 C-terminal 12 aa], the protein stability index worked out at 0.689 ± 0.012 under setting [1] and 0.675 ± 0.014 (genetic background: wild type).

Turning to TFFDIRQKFVVV [BOP2 C-terminal 12 aa], the protein stability index reads like this: under setting [1], 0.493 ± 0.012; (genetic background: wild type) 0.44744 ± 0.00038.

As to TFLYYYFPLPTN [YPL080C C-terminal 12 aa], the protein stability index is, setting by setting: under setting [1], 0.656 ± 0.029; (genetic background: wild type) 0.69 ± 0.028.

For the sequence “TFPLVMMKTTYY [YFR009W-A C-terminal 12 aa]”, the protein stability index by setting is: under setting [1], 0.72 ± 0.065; (genetic background: wild type) 0.697 ± 0.044.

Regarding TGTSNSVLVIIT [YPL136W C-terminal 12 aa], the protein stability index reads like this: under setting [1], 0.677 ± 0.013; (genetic background: wild type) 0.684 ± 0.033.

THKKPGFENYSI [IRC13 C-terminal 12 aa]: the protein stability index by setting is: under setting [1], 0.70632 ± 0.00041; (genetic background: wild type) 0.704 ± 0.017.

For the sequence TIAIGKIVKIAE [SUP35 C-terminal 12 aa], the protein stability index worked out at 0.7085 ± 0.0052 under setting [1] and 0.685 ± 0.013 (genetic background: wild type).

Consider “TIIYPLFIFFSL [YMR105W-A C-terminal 12 aa]”, for which the protein stability index under setting [1] amounted to 0.312 ± 0.022 and the protein stability index (genetic background: wild type) is 0.225 ± 0.0044.

Consider TISRLPPRSWTN [YCL042W C-terminal 12 aa], for which the protein stability index was 0.717 ± 0.037 under setting [1] and 0.739 ± 0.015 (genetic background: wild type).

TIYDGEAVAKYI [PRE5 C-terminal 12 aa]: the protein stability index is, setting by setting: under setting [1], 0.6775 ± 0.0025; (genetic background: wild type) 0.7 ± 0.046.

As to TKAIEDAKKEMK [NUP2 C-terminal 12 aa], the protein stability index runs as follows: under setting [1], 0.714 ± 0.013; (genetic background: wild type) 0.737 ± 0.11.

As to TKISIRKAPKFF [MRPL31 C-terminal 12 aa], the protein stability index by setting is: under setting [1], 0.701 ± 0.019; (genetic background: wild type) 0.656 ± 0.024.

TKNLVPGFSDLM [SEC61 C-terminal 12 aa]: the protein stability index under setting [1] was 0.708 ± 0.012 and the protein stability index (genetic background: wild type) came to 0.676 ± 0.011.

On to TKNTCIRRLSNQ [YLR031W C-terminal 12 aa], for which the protein stability index under setting [1] was 0.709 ± 0.018 and the protein stability index (genetic background: wild type) was 0.698 ± 0.036.

On to TLISGKEDGPTI [SRY1 C-terminal 12 aa], for which the protein stability index reads like this: under setting [1], 0.69 ± 0.028; (genetic background: wild type) 0.701 ± 0.044.

Regarding TLKKRFGLVPGQ [NOP10 C-terminal 12 aa], the protein stability index reads like this: under setting [1], 0.7141 ± 0.0036; (genetic background: wild type) 0.686 ± 0.029.

For TLKKVTQNFYFD [LMO1 C-terminal 12 aa], the protein stability index reads like this: under setting [1], 0.7094 ± 0.0054; (genetic background: wild type) 0.6724 ± 0.0018.

In the case of TLVADQEDDVIF [VMA8 C-terminal 12 aa], the protein stability index is 0.7039 ± 0.0067 under setting [1] and 0.715 ± 0.025 (genetic background: wild type).

Consider TLVGTPGYRITL [RCE1 C-terminal 12 aa], for which the protein stability index by setting is: under setting [1], 0.7168 ± 0.0018; (genetic background: wild type) 0.695 ± 0.02.

As to TNDRLQSILHDL [MEF2 C-terminal 12 aa], the protein stability index is, setting by setting: under setting [1], 0.7148 ± 0.0071; (genetic background: wild type) 0.702 ± 0.013.

As for TNERQLNPWICN [YML090W C-terminal 12 aa], the protein stability index by setting is: under setting [1], 0.7061 ± 0.0031; (genetic background: wild type) 0.688 ± 0.031.

Take TPDVLAAGPQFE [PCK1 C-terminal 12 aa]: the protein stability index is 0.7065 ± 0.0036 under setting [1] and 0.6787 ± 0.0029 (genetic background: wild type).

For TQKKVDQRWKKH [SEN54 C-terminal 12 aa], the protein stability index reads like this: under setting [1], 0.692 ± 0.016; (genetic background: wild type) 0.737 ± 0.082.

On to TQLVQKALERFK [RIC1 C-terminal 12 aa], for which the protein stability index worked out at 0.734 ± 0.025 under setting [1] and 0.676 ± 0.084 (genetic background: wild type).

Take TSDGSASDLEII [MCM10 C-terminal 12 aa]: the protein stability index under setting [1] stood at 0.686 ± 0.0096 and the protein stability index (genetic background: wild type) stood at 0.692 ± 0.024.

TSLEKQINSIKK [NSP1 C-terminal 12 aa]: the protein stability index by setting is: under setting [1], 0.753 ± 0.036; (genetic background: wild type) 0.70199 ± 0.0005.

As to TSNGGVEETMKM [ARX1 C-terminal 12 aa], the protein stability index is, setting by setting: under setting [1], 0.6815 ± 0.00071; (genetic background: wild type) 0.676 ± 0.025.

As for TSNSPSPDLMEK [SMA2 C-terminal 12 aa], the protein stability index runs as follows: under setting [1], 0.7018 ± 0.0012; (genetic background: wild type) 0.705 ± 0.042.

For the sequence TSPPEGMEPKHW [SGT1 C-terminal 12 aa], the protein stability index runs as follows: under setting [1], 0.696 ± 0.013; (genetic background: wild type) 0.687 ± 0.0088.

For TVIFSCVPGRRV [RAX1 C-terminal 12 aa], the protein stability index under setting [1] worked out at 0.7205 ± 0.0062 and the protein stability index (genetic background: wild type) was 0.709 ± 0.0011.

TVNYNDKTISGN [VPS30 C-terminal 12 aa]: the protein stability index under setting [1] turned out to be 0.689 ± 0.022 and the protein stability index (genetic background: wild type) came out at 0.692 ± 0.055.

On to TYNSYTEPEELR [FMP27 C-terminal 12 aa], for which the protein stability index reads like this: under setting [1], 0.692 ± 0.025; (genetic background: wild type) 0.716 ± 0.05.

As for VAHRENLAFPPR [PRO1 C-terminal 12 aa], the protein stability index is, setting by setting: under setting [1], 0.732 ± 0.02; (genetic background: wild type) 0.707 ± 0.012.

Take “VARRITDHTCLM [YLR364C-A C-terminal 12 aa]”: the protein stability index reads like this: under setting [1], 0.677 ± 0.0084; (genetic background: wild type) 0.696 ± 0.031.

VCKFASWLFSKI [AMD2 C-terminal 12 aa]: the protein stability index runs as follows: under setting [1], 0.72 ± 0.041; (genetic background: wild type) 0.6687 ± 0.005.

As to VDHLTDPDIYIP [BUB2 C-terminal 12 aa], the protein stability index by setting is: under setting [1], 0.7 ± 0.017; (genetic background: wild type) 0.7129 ± 0.0042.

Regarding VERNHPVITNIS [YCR087W C-terminal 12 aa], the protein stability index stood at 0.7114 ± 0.0043 under setting [1] and 0.733 ± 0.062 (genetic background: wild type).

On to VESPTLFCVCTQ [YPR170C C-terminal 12 aa], for which the protein stability index runs as follows: under setting [1], 0.6115 ± 0.0024; (genetic background: wild type) 0.66 ± 0.028.

With VFWKLKSRKLRI [MCH1 C-terminal 12 aa], the protein stability index is, setting by setting: under setting [1], 0.692 ± 0.0085; (genetic background: wild type) 0.418 ± 0.033.

Consider VGENNYYAESII [COS111 C-terminal 12 aa], for which the protein stability index reads like this: under setting [1], 0.714 ± 0.024; (genetic background: wild type) 0.7022 ± 0.005.

Take VGRKPRLPKGKL [YCL002C C-terminal 12 aa]: the protein stability index by setting is: under setting [1], 0.758 ± 0.021; (genetic background: wild type) 0.842 ± 0.024.

In the case of VHPNWSPFEVFK [GCY1 C-terminal 12 aa], the protein stability index came out at 0.744 ± 0.033 under setting [1] and 0.738 ± 0.037 (genetic background: wild type).

Turning to VHTELLIYCHDE [ASR1 C-terminal 12 aa], the protein stability index by setting is: under setting [1], 0.7068 ± 0.006; (genetic background: wild type) 0.6802 ± 0.0017.

Take VIKQQNHQTTKI [HKR1 C-terminal 12 aa]: the protein stability index stood at 0.68 ± 0.037 under setting [1] and 0.705 ± 0.055 (genetic background: wild type).

As for VISLAAQSKYVQ [MCO6 C-terminal 12 aa], the protein stability index is, setting by setting: under setting [1], 0.693 ± 0.019; (genetic background: wild type) 0.697 ± 0.034.

As for VKDKVDAVYSSS [FAA1 C-terminal 12 aa], the protein stability index worked out at 0.6925 ± 0.0045 under setting [1] and 0.678 ± 0.011 (genetic background: wild type).

Regarding VKKNKPSIESKC [GSH1 C-terminal 12 aa], the protein stability index by setting is: under setting [1], 0.688 ± 0.0086; (genetic background: wild type) 0.762 ± 0.03.

Regarding VLESFLAPMVNQ [BET5 C-terminal 12 aa], the protein stability index is 0.688 ± 0.0073 under setting [1] and 0.71 ± 0.061 (genetic background: wild type).

In the case of VLIVLLVLAFIA [TLG1 C-terminal 12 aa], the protein stability index runs as follows: under setting [1], 0.284 ± 0.013; (genetic background: wild type) 0.286 ± 0.0034.

With VMLLFIFLIMKL [PEP12 C-terminal 12 aa], the protein stability index turned out to be 0.186 ± 0.023 under setting [1] and 0.198 ± 0.01 (genetic background: wild type).

In the case of VMLNSVSISLNK [COG5 C-terminal 12 aa], the protein stability index is, setting by setting: under setting [1], 0.711 ± 0.014; (genetic background: wild type) 0.6577 ± 0.00017.

As to VNHNWYSIYEST [TFC3 C-terminal 12 aa], the protein stability index reads like this: under setting [1], 0.729 ± 0.013; (genetic background: wild type) 0.681 ± 0.0081.

Consider VPLIIDSSGSAN [FTH1 C-terminal 12 aa], for which the protein stability index under setting [1] is 0.718 ± 0.011 and the protein stability index (genetic background: wild type) came to 0.68 ± 0.0077.

In the case of VRLRGRKRSMLG [BUD32 C-terminal 12 aa], the protein stability index worked out at 0.701 ± 0.02 under setting [1] and 0.665 ± 0.023 (genetic background: wild type).

For VSGFKDEVLETV [RPS1B C-terminal 12 aa], the protein stability index by setting is: under setting [1], 0.679 ± 0.037; (genetic background: wild type) 0.708 ± 0.029.

Source of the values: the supplement of paper PMC10724198.
